Test results from patent US6362319B1, “Glial cell line-derived neurotrophic factor” (Amgen Inc., priority 1991, dated 2002).

Legend:
[1] = tested on: TH+ dopamine neurons in mesencephalic cultures; assay: Tyrosine hydroxylase (TH) immunoreactivity in mesencephalic cultures; assay type: cell-based, rat; details: added at day of plating, examined eight days later
Description: FIGS. 20A-B depicts the ability of GDNF to stimulate dopamine uptake and tyrosine hydroxylase (TH) immunostaining in dopaminergic neurons. Cultures were established as described in Example 1B. […] B. […] Primary antibody binding was visualized using a Vectastain ABC kit (Vector Labs, Burlingame, Calif.).
Culture conditions: Dissociated mesencephalic cell cultures were prepared as previously described (Friedman and Mytilineou 1987 Neurosci. Lett. 79:65-72), with minor modifications. Briefly, rostral mesencephalic tegmentum from brains of Sprague-Dawley rat embryos, at the 16th day of gestation, were dissected under the microscope in sterile conditions, collected in Ca^2+- and Mg^2+-free Dulbecco's phosphate buffered saline (Gibco, Gaithersburg, Md.) and dissociated mechanically by mild trituration. The cells were plated in 100 μl per well onto 16-mm diameter tissue culture wells (Falcon, Lincoln Park, N.J., 24-well plate) containing 400 μl medium to give a density of 2.5-3.5×10^5 cells per well. The culture wells had been previously exposed to 0.1 mg/ml solution of poly L-ornithine in 10 mM sodium borate, pH 8.4, for 3 hours at 37° C., washed 3 times in milli-Q H2O and once in Earle's balanced salt solution (Gibco). […]

[2] = tested on: dopaminergic neurons in rat embryo (E16) mesencephalic cell cultures; assay: Bioassay for dopaminergic neurotrophic activity: 3H-dopamine uptake in dissociated mesencephalic cell cultures; assay type: cell-based; details: for FOLD (specific activity relative to B49 conditioned medium): purification fold over CM
Description: The dopaminergic activity of the GDNF is used to facilitate the purification process. […] Briefly, cultures of dissociated mesencephalic cells are prepared, either in serum rich or serum free environments. Samples to be tested for dopaminergic activity are desalted and serially added to the cell cultures and the dishes are incubated for 6 days at 37° C. in a humidified atmosphere containing 6.5% CO2. The cultures, in the presence of the testing material, are then incubated at 37° C. with tritiated dopamine (^3H-DA). The dopamine uptake is halted, the cells washed, and the dopamine uptake analyzed by scintillation counting of retained tritium in the cultures.
Culture conditions: Dissociated mesencephalic cell cultures were prepared as previously described (Friedman and Mytilineou 1987 Neurosci. Lett. 79:65-72), with minor modifications. Briefly, rostral mesencephalic tegmentum from brains of Sprague-Dawley rat embryos, at the 16th day of gestation, were dissected under the microscope in sterile conditions, collected in Ca^2+- and Mg^2+-free Dulbecco's phosphate buffered saline (Gibco, Gaithersburg, Md.) and dissociated mechanically by mild trituration. The cells were plated in 100 μl per well onto 16-mm diameter tissue culture wells (Falcon, Lincoln Park, N.J., 24-well plate) containing 400 μl medium to give a density of 2.5-3.5×10^5 cells per well. The culture wells had been previously exposed to 0.1 mg/ml solution of poly L-ornithine in 10 mM sodium borate, pH 8.4, for 3 hours at 37° C., washed 3 times in milli-Q H2O and once in Earle's balanced salt solution (Gibco). The feeding medium (10/10) consisted of minimal essential medium (MEM, Gibco) supplemented with glucose (33 mM), sodium bicarbonate (24.5 mM), glutamine (2 mM), HEPES (15 mM), penicillin G (5 U/ml), streptomycin (5 μg/ml), 10% heat-inactivated fetal calf serum (Gibco) and 10% heat inactivated horse serum (Gibco). The cultures were kept at 37° C. in a water-saturated atmosphere containing 6.5% CO2. After 3 hours, when most of the cells had adhered to the bottom of the well, the medium was replaced with 500 μl of fresh medium. At this time, a serial dilution of the sample to be assayed for GDNF activity was added to each well in duplicate and the plates were incubated in the 37° C. incubator. After a week, the cultures were treated for 24 hours with fluorodeoxyuridine (13 μg/ml) and uridine (33 μg/ml) to prevent excessive glial proliferation and subsequently fed with the above medium without fetal calf serum. The feeding medium was changed weekly.
Alternatively, chemically defined serum-free medium was used in which serum was replaced by a mixture of proteins; hormones and salts. The defined medium (DM) consisted of a mixture of MEM and F12 nutrient mixture (both Gibco, 1:1; vol/vol) with glucose (33 mM), glutamine (2 mM) NaHCO3 (24.5 mM), HEPES (15 mM), supplemented with transferrin (100 μg/ml), insulin (25 μg/ml), putrescine (60 μM), progesterone (20 nM), sodium selenite (30 nM), penicillin G (5 U/ml) and streptomycin (5 μg/ml). The osmolarity of the DM was adjusted to 325 by the addition of milli-Q H2O. (110-125 ml H2O/l). […] All assays reached in the following examples were done in serum-containing medium.
The functional status of the dopaminergic neurons may be assayed in these cultures by measuring dopamine uptake through specific “scavenger” transporters in the dopaminergic neurons and by counting the number of neurons positive for the dopamine synthetic enzyme tyrosine hydroxylase using immunohistochemistry.

B1: glial cell line-derived neurotrophic factor (protein)
chain: SNMPEDYPDQFDDVMDFIQATIKRLKRSPDKQMAVLPRRERNRQAAAANPENSRGKGRRGQRGKNRGCVLTAIHLNVTDLGLGYETKEELIFRYCSGSCDAAETTYDKILKNLSRNRRLVTDKVGQACCRPIAF
notes: dopaminergic neurotrophic protein purified from serum-free conditioned medium of rat B49 glioblastoma cells; disulfide-bonded dimer
- number of TH+ neurons over controls without GDNF [1]: tenfold higher
- bioactivity in dopamine uptake assay [2]: active in stimulating dopamine uptake in both serum-containing and defined media
- SP. ACT (specific activity, dopamine uptake trophic units per protein) ([2]; TU = reciprocal of dilution giving 50% of maximal stimulation of 3H-DA uptake): at least 12,000 TU/μg
- concentration for half-maximal stimulation of dopamine uptake ([2]; indicated by the specific activity): approximately 60 pg/ml
- FOLD (specific activity relative to B49 conditioned medium) [2]: about 24,000
- FOLD (specific activity relative to B49 conditioned medium) ([2]; listed as substantially purified GDNF): at least 24,000
- estimated specific activity ([2]; purified GDNF after final RP-HPLC): about 17 trophic units/ng
- ED50 for increasing dopamine uptake ([2]; rat embryo (E16) mesencephalic culture): about 50 pg/ml
